{"source": "the DeepSol protein solubility set"}
{"assay": "soluble on expression in E. coli; label from the status in PepcDB or PDB records"}
{"sequence": "MAHHHHHHMSTRKEPPKVLKGAAYTECSPISDVSHHKASASKAFLENHYRGMLRDTRSGNTARPVGPRPREPCVDDFVLVKRIGKGAFGEVYLCYKKYDNDKQLYALKRMRKTDMIRKKQISHVRSEKDVMAEAASTNPWVVKLYLSFQDEQYLYMVMEYMPGGDMISWLCIKQRFDVESTRFYIAELCAAVASVHDMFFVHRDIKPDNILLDAKGHIKLTDFGLSKRFAKVGEELLDLEEGNDALCSSNSSANLSNTCGSTCQGPNSVPVVSPHNPHSPTANYNSLTPAGSHASAHPQARRIFESIVGSPGYIAPEILLRQRYGVNCDWWSVGVIMYEMLYGIPPFFSSDTSSTCHKITHWREYLTYPSDRGVPPEATDLLRRLMCDQRDRLDFQGVKEHPFFNDIDWERLRETPPAFVPELSDPLDTHYFPEVEDNTPQQHHQRPEERNAVREVDPRGVIFADYKFNLKR", "soluble on expression in E. coli": "soluble"}
{"sequence": "MAHHHHHHMPETTHVTNDAAVPQKHIVEKPHLMDLFRSSASFAKIIAYLQGCSDSVNGTPRSARMVQKASELHPTVRFFVETFFPHLHKIVEEVPLQDMKKQRFGNRAFRVFHERLEADVGGLMQQLVLTLPARSGERSEEEQRCLAVELAEYIKDSFGNSTRIDYGTGHELHFFVVIMICLEECGDAGGTLQAEPTTIVSLNFPQPAPVLVDKRDRVCRLRQGMVFDVFGAYLTFMRRLQKHYHLEPAGSHGVWGLDDYHHLPFIFGAAQLIGKEVPHKTDDSGNGKGYGAILPKHVCEENAVRLHADEYFYFAQVAWVRENKTGPFFEHSSMLYNISGVESWQKIYTGMVKMYAAEVLSKFNVVQHLLFGTHLPWPPDV", "soluble on expression in E. coli": "soluble"}
{"sequence": "MPEAWIVEAVRTPIGKHGGALASVRPDDLLAHALSVLVDRSGVPKEEVEDVYAGCANQAGEDNRNVARMALLLAGFPVEVAGCTVNRLCGSGLEAVAQAARAIWAGEGKVYIGSGVESMSRAPYAVPKPERGFPTGNLVMYDTTLGWRFVNPKMQALYGTESMGETAENLAEMYGIRREEQDRFALLSHQKAVRAWEEGRFQDEVVPVPVKRGKEEILVEQDEGPRRDTSLEKLAALRPVFREGGTVTAGNSSPLNDGAAAVLLVSDDYAKAHGLRPLARVRAIAVAGVPPRIMGIGPVPATRKALERAGLSFSDLGLIELNEAFAAQALAVLREWSLSMEDQRLNPNGGAIALGHPLGASGARILTTLVHEMRRRKVQFGLATMCIGVGQGIAVVVEGMG", "soluble on expression in E. coli": "soluble"}
{"sequence": "MRLFIVQAMFTEYRPTHGYDEYFCREQSAPRADLEPLLSSLGAMGLAELNRSHASASNLLRRLGATFRLNGSGLHGGERILPFDPLPRLIHRQEWSVLERGLVQRLEAIDQFLADVYGPQRILNDGVIPREDVESSQGWRPQMQDIAVPLNRWCHISGLDLIRDGDGTWRVLEDNLRCPSGVAYFLENRRVMKRLFPSLFQGRTVQPIDDYPSHLLRTLQDLAPWSDAPRVVLLTPGVFNSAYFEHSYLAQQMGIALVEGRDLICEDGRVWMRSTAGREPVDVIYRRIDDDFLDPNVFRRDSMLGVPGLIDAMRSGRVAIANAPGSGVADDKLIYAYVPAMIRYYLNEEPIIDNVPTYLCSRDDDRRYVLEHLNELVVKSVAEAGGYGMLIGPHASSEEIESFAVKIKAHPRNFIAQPTLQLSTVPSLSEGELYPCHVDLRPYVLRGKSDWVSPGGLTRVALKRGSLVVNSSQGGGCKDTWVVSDSAVTAGNQELVPC", "soluble on expression in E. coli": "not soluble"}
{"sequence": "SLTQKEQEEKLYMMLPVFNRVFGNAPPNTMTEKFSDLLQFTTQVSRLMVTEIRRRASNKSTEAASRAIVQFLEINQSEEASRGWMLLTTINLLASSGQKTVDCMTTMSVPSTLVKCLYLFFDLPHVPEAGGGAQNELPLAERRGLLQKAFVQILVKLCSFVSPAEELAQKDDLQLLFSAITSWCPPYNLPWRKSAGEVLMTISRHGLSVNVVKYIHEKECLSTCVQNMQQSDDLSPLEIVEMFAGLSCFLKDSSDVSQTLLDDFRIWQGYNFLCDLLLRLEQGKEAECRDALKDLVSLVTSLTTYGVSELKPAGVTTGAPFLLPGFAVPQPAGKGHSVRNIQAFAVLQNAFLKAKTNFLAQIILDAITNIYMADNANYFILESQHTLSQFAEKISKLPEVQNKYFEMLEFVVFSLNYIPCKELISVSILLKSSSSYHCSIIAMKTLLKFTRHDYIFKDVFREVGLLEVMVNLLHKYAALLKDPAQALN", "soluble on expression in E. coli": "soluble"}
{"sequence": "GKVGDRPIEQQLALGYIKALTEHDYQTLSKYYNRDSVFYDKTADTKYIGTRSIIAFLQRSHEGVLEFDFNIEHMFNTGPLVVMIGNYHLRGPGEQFGKPGKIIDIAIPGVTTLKFDPNTQRLTEQVDLMDYQTMSDQLQSQ", "soluble on expression in E. coli": "soluble"}
{"sequence": "MRQSTLHTRLSTGPGGSMRSSIEIFNIRTRKMRVVWQTPELFEAPNWSPDGKYLLLNSEGLLYRLSLAGDPSPEKVDTGFATICNNDHGISPDGALYAISDKVEFGKSAIYLLPSTGGTPRLMTKNLPSYWHGWSPDGKSFTYCGIRDQVFDIYSMDIDSGVETRLTHGEGRNDGPDYSPDGRWIYFNSSRTGQMQIWRVRVDGSSVERITDSAYGDWFPHPSPSGDKVVFVSYDADVFDHPRDLDVRVQLMDMDGGNVETLFDLFGGQGTMNSPNWSPDGDEFAYVRYFPVE", "soluble on expression in E. coli": "soluble"}
{"sequence": "MSLGEDSEGSGTSGISPGGNSVSEEVLKHRSMVEKYAKESDILDYVPILLAIIQVESGGTMEDVMQSSESAGLPPNSLSTEASIKQGCIYFASLVKSSKELGCDQDSIIQAYNYGGGYLNYVAKNGKKHSFTLAESFSKEKSGGQKVDYPNPIAIKENGGWRYNYGNMFYCLLVKQYLTTTQFDDKTVQGIFDEAFKYEGTAYVFGGSSPATGFDCSGLTQWCYAKVGLKLPRVAQDQYDVMTHIDLKDAKPGDLIFFHSTYDAGTYVTHVGIYAGENRMFHAGNPVGWTNLTESYWQQHLIGAGRYNEGHHHHHH", "soluble on expression in E. coli": "soluble"}
{"sequence": "MGSDKIHHHHHHHTDKAEFLDFSNLTQYRQDVKTLASDAFEGRAPLSKGETLTLDFLVNAFKEMGLAPGFGDSYLQAVPMAKITAKQDMQLTIGALKFTHGKDFTARSQQIKPHIALNNSEVVFVGYGINAPEFGWNDYAGIDVKGKTVIMLVNDPGFATQDNKRFKGNAMTYYGRWTYKYEEAARQGAAAVFIVHETAPAGYGWGVVENSNTGSKFTLVDDNNNLSQIAVMGWLQHKATQQIFATAGLDFDSLKLSTHKAGFKTVDLNLSAKLNLDNSIEMAKSHNVLALLPGATEFDGKRNPQQDELVVMHAHWDHLGSKTHQDGSQEIFNGAVDNASGTAGVLALARAFKAKASVTPFKRSILFSAFTAEETGLIGAQYFAQNPSVPTKNIAAFLNIDGMNVNDGVSYILQYGQGVSELEDYLEDAAKAQQRTVKADPLPQNGLMFRSDHFALAQEGVPGLLFMSLGDTDPNYIDAKYHKEADDYDANWSLGGVSQDLSLIGSILARLANNSDWPKWLEDSDFKTRRSEDNR", "soluble on expression in E. coli": "not soluble"}
{"sequence": "MGSDKIHHHHHHMFKPWVGDDWGHQDNALQGIRLLVMGESHYCDPAKPELVGRCEPDVTSYVVRRYAIEESHRFFTGITQVISGKPKWQMSRDDVAAIWHSIAFYNYVPLYVGTQSRIRPGDKFALGRVPFEILLEQLRPRAILVCGYELWWWVLKGMPCGFNGDPASVPFQKIGPAIAARMKHPSSAYSSVRWRPTLLELLSRARALQQE", "soluble on expression in E. coli": "not soluble"}
{"sequence": "MGSDKIHHHHHHAELPLEEGVSVRFEIKRDGVMSRAPGDAALSVNRILILPFRKTDEASSNDAANFVPEYSAARQLDVNSFPAVVTMLTLSAASTYQLLVIGYNRSDYDFASGGGATKRFNIGSTGNPATLANLYLQPVNPTVVPEFFSCFGNGYRGTTLVGPIFKPSQINYVTGTLKRLVSGFTLEVTNVPAYVNSMTLIAEQLVTATRATDGTALTWQTAGDGGTKTLATQAPVSGKVSFNQFLLAIPDSRKTLFYLDVSYGIFTERYTVKLPDTPGVVSGNRIIFTPNHWVKVTGSYANINIGFTLAGNINLDDNAWDGLQ", "soluble on expression in E. coli": "not soluble"}
{"sequence": "MSLDLFSVRMRAQKNGKHVSGAERIVKKEELETAVKELLNRPKEFDFMNVKVEKVKDFEVVKFNLKISTYSFKSPEEAREFAVKKLTQEGIKEEVAKKAVEILSKGANPKGGNMRGAVLMDIETGERLEEDKERGVRTIHFDWKDRKKVTEKLLKEGYTLRTVDALALTFKNLFCGVVAELCWSDDPDYVTGYVSGKEIGYVRITPLKEKGDPLGGRVYFVSRKELSEIIECLTQKVVLIELEGHHHHHH", "soluble on expression in E. coli": "soluble"}
{"sequence": "AQAFVNSKIQPGKVVVFIKPTCPFCRKTQELLSQLPFKEGLLEFVDITATSDTNEIQDYLQQLTGARTVPRVFIGKECIGGCTDLESMHKRGELLTRLQQVGAVK", "soluble on expression in E. coli": "soluble"}
